Measured values from PMC8263772.

Molecular target: dog angiotensin-converting enzyme 2 (dACE2) ectodomain, 6xHis (dog)
Experiment: SPR

Substance “SARS-CoV-2 spike (S) protein receptor binding domain (RBD), wild type (from UniProt P0DTC2) (domain or fragment)” has a Kd of 123 nM.
